# Assay results taken from the RNAGym collection of RNA variant scans (doi:10.1021/acssynbio.7b00057).
# B1: Pistol ribozyme (parent)
# chain: GGGUCGUUGUUCCAUAAUCGCGUGGAUAUGGCACGCAAGUUUCUACCGGGCACCGUAAAUGUCCGACUGGAGCCGUUCGGGCGGCUAUAAACAGACCUCAGGCCCGAAGCGUGGCGGCACCUGCCGCCGGUGGUAAAAAAGAUCGGAAGAGCACACGUCU
# Variants of: B1
# Test: aptazyme ON/OFF ratio, guanine; higher = stronger switching; co-transcriptional cleavage with and without guanine
row,Variant,aptazyme ON/OFF ratio
1,G9A U10C U11G C13A,1.39
2,G9A U10C U11G C13G,1.18
3,G9A U10C U11G C13U,1.39
4,G9C U10A U11A C12U C13A,1.34
5,G9C U10A U11A C12U C13G,1.14
6,G9C U10A U11A C12U C13U,1.42
7,G9C U10C C13U,1.1
8,G9C U10C C13A,1.06
9,G9C U10C C13G,1.06
10,G9C U10C,1.52
11,G9C U10A,1.98
12,G9A U10G U11G C12A,1.11
13,G9A U10G U11G C12U,1.48
14,G9A U10G U11G C12G,1.25
15,G9C U10A U11C C12U,1.13
16,G9C U10A U11C C12A,1.48
17,G9C U10A U11C C12G,1.18
18,G9C U10C U11C C12U C13G,1.01
19,G9C U10C U11C C12U C13A,1.02
20,G9C U10C U11C C12U C13U,1.03
21,G9A U10G,3.45
22,G9A U10C,3.12
23,G9A U11A C12A C13G,1.29
24,G9A U11A C12A C13U,1.36

row,Variant,aptazyme ON/OFF ratio
1,G9A U11A C12A C13A,1.33
2,G9C U10A U11G C12G,1.23
3,G9C U10A U11G C12U,1.37
4,G9C U10A U11G C12A,1.06
5,G9A U10A U11G C12A C13A,1.07
6,G9A U10A U11G C12A C13U,1.26
7,G9A U10A U11G C12A C13G,1.28
8,G9A U10G U11G C12A C13U,1.25
9,G9A U10G U11G C12A C13G,1.13
10,G9A U10G U11G C12A C13A,1.19
11,G9C U10A C13A,1.3
12,G9C U10A C13U,1.3
13,G9C U10A C13G,1.08
14,G9C U10A U11G C12U C13G,1.16
15,G9C U10A U11G C12U C13A,1.08
16,G9C U10A U11G C12U C13U,1.26
17,G9A U10G U11A C12A C13A,1.08
18,G9A U10G U11A C12A C13U,1.1
19,G9A U10G U11A C12A C13G,1.09
20,G9A U10A U11G C12U C13U,1.22
21,G9A U10A U11G C12U C13A,1.34
22,G9A U10A U11G C12U C13G,1.28
23,G9A U10C C12A C13A,1.46
24,G9A U10C C12A C13G,1.29

row,Variant,aptazyme ON/OFF ratio
1,G9A U10C C12A C13U,1.19
2,G9C U10C U11A C12G C13A,1.19
3,G9C U10C U11A C12G C13U,1.22
4,G9C U10C U11A C12G C13G,1.19
5,G9A U11A C12G C13G,1.2
6,G9A U11A C12G C13A,1.39
7,G9A U11A C12G C13U,1.41
8,G9A U10C U11A C12A C13G,1.42
9,G9A U10C U11A C12A C13A,1.28
10,G9A U10C U11A C12A C13U,1.63
11,G9A U10G U11G C12U C13A,1.08
12,G9A U10G U11G C12U C13U,1.55
13,G9A U10G U11G C12U C13G,1.19
14,G9C U10A U11A C12A C13U,1.27
15,G9C U10A U11A C12A C13A,1.4
16,G9C U10A U11A C12A C13G,1.21
17,G9A U11G C12U C13A,1.35
18,G9A U11G C12U C13G,1.42
19,G9A U11G C12U C13U,1.21
20,G9C U10C U11G C12U,1.07
21,G9C U10C U11G C12G,1.09
22,G9C U10C U11G C12A,1.03
23,G9C U10C U11G C13A,1.06
24,G9C U10C U11A C12A C13A,1.06

row,Variant,aptazyme ON/OFF ratio
1,G9C U10C U11A C12A C13G,1.07
2,G9C U10C U11A C12A C13U,1.11
3,G9A U10A U11G C12G C13G,1.2
4,G9A U10A U11G C12G C13U,1.25
5,G9A U10A U11G C12G C13A,1.42
6,G9A U10C U11A C12G,1.48
7,G9A U10C U11A C12U,1.78
8,G9A U10C U11A C12A,1.67
9,G9C,1.06
10,G9C U10C U11C C12A,1.04
11,G9C U10C U11C C12U,1.03
12,G9C U10C U11C C12G,1.04
13,G9A U10C U11C C12G,1.18
14,G9A U10C U11C C12A,1.1
15,G9A U10C U11C C12U,1.06
16,G9A U11C,1.12
17,G9A U11A,2.53
18,G9A U11G,2.2
19,G9A U10C U11C C12U C13G,1.04
20,G9A U10C U11C C12U C13A,1.03
21,G9A U10C U11C C12U C13U,1.06
22,G9A U10C C12G,1.32
23,G9A U10C C12U,1.5
24,G9A U10C C12A,1.38

row,Variant,aptazyme ON/OFF ratio
1,G9C U10C C12U C13A,1.07
2,G9C U10C C12U C13G,1.06
3,G9C U10C C12U C13U,1.07
4,G9A U10C U11G C12U C13G,1.43
5,G9A U10C U11G C12U C13U,1.4
6,G9A U10C U11G C12U C13A,1.37
7,G9A U10C U11A C12U C13U,1.22
8,G9A U10C U11A C12U C13A,1.35
9,G9A U10C U11A C12U C13G,1.29
10,G9C U10C C12U,1.12
11,G9C U10C C12G,1.06
12,G9C U10C C12A,1.09
13,G9A U10G U11C C13G,1.12
14,G9A U10G U11C C13U,1.09
15,G9A U10G U11C C13A,1.16
16,G9A U10A U11G C12U,1.42
17,G9A U10A U11G C12A,1.02
18,G9A U10A U11G C12G,1.16
19,G9A U11C C12U C13A,1.41
20,G9A U11C C12U C13U,1.55
21,G9A U11C C12U C13G,1.38
22,G9A U11C C12G C13G,1.15
23,G9A U11C C12G C13A,1.28
24,G9A U11C C12G C13U,1.33

row,Variant,aptazyme ON/OFF ratio
1,G9C U10A U11A C12U,1.66
2,G9C U10A U11A C12A,1.52
3,G9C U10A U11A C12G,1.5
4,G9C U10C U11A C12A,1.07
5,G9C U10C U11A C12G,1.14
6,G9C U10C U11A C12U,1.13
7,G9C U10C C12G C13U,1.09
8,G9C U10C C12G C13G,1.09
9,G9C U10C C12G C13A,1.06
10,G9A U10C U11A C13G,1.14
11,G9A U10C U11A C13U,1.3
12,G9A U10C U11A C13A,1.41
13,G9A U10A U11G C13G,1.11
14,G9A U10A U11G C13A,1.34
15,G9A U10A U11G C13U,1.51
16,G9A U10C U11A C12G C13U,1.36
17,G9A U10C U11A C12G C13A,1.14
18,G9A U10C U11A C12G C13G,1.31
19,G9C U10A U11A C12G C13A,1.31
20,G9C U10A U11A C12G C13G,1.27
21,G9C U10A U11A C12G C13U,1.38
22,G9A U10C C13U,1.23
23,G9A U10C C13A,1.08
24,G9A U10C C13G,1.03

row,Variant,aptazyme ON/OFF ratio
1,G9A U10G U11C C12A C13U,1.25
2,G9A U10G U11C C12A C13A,1.18
3,G9A U10G U11C C12A C13G,1.15
4,G9C U10A U11C C12U C13U,1.29
5,G9C U10A U11C C12U C13A,1.25
6,G9C U10A U11C C12U C13G,1.12
7,G9C U10C U11G,1.41
8,G9C U10C U11A,1.12
9,G9C U10C U11C,0.976
10,G9A U10G U11A C12G C13U,1.53
11,G9A U10G U11A C12G C13A,1.02
12,G9A U10G U11A C12G C13G,1.45
13,G9C U10A U11G C12G C13A,1.19
14,G9C U10A U11G C12G C13U,1.16
15,G9C U10A U11G C12G C13G,1.13
16,G9C U10C U11C C13A,1.02
17,G9C U10C U11C C13U,1.02
18,G9C U10C U11C C13G,1.03
19,G9C U10A U11A C13G,1.05
20,G9C U10A U11A C13A,1.22
21,G9C U10A U11A C13U,1.32
22,G9A U10C U11G,1.86
23,G9A U10C U11C,1.06
